{
  "source": "patent US20190336574A1",
  "about": "(TRUSTEES OF PRINCETON UNIVERSITY, published 2019)",
  "binders": {"B1": {"name": "Myc-MTDH D393R, full-length human (other)", "chain": "MAARSWQDELAQQAEEGSARLREMLSVGLGFLRTELGLDLGLEPKRYPGWVILVGTGALGLLLLFLLGYGWAAACAGSRKKRRSPPRKREEAAAVPAAAPDDLALLKNLRSEEQKKKNRKKLSEKPKPNGRTVEVAEGEAVRTPQSVTAKQPPEIDKKNEKSKKNKKKSKSDAKAVQNSSRHDGKEVDEGAWETKISHREKRQQRKRDKVLTDSGSLDSTIPGIENTITVTTEQLTTASFPVGSKKNKGDSHLNVQVSNFKSGKGDSTLQVSSGLNENLTVNGGGWNEKSVKLSSQISAGEEKWNSVSPASAGKRKAEPSAWSQDTGDANTNGKDWGRSWSDRSIFSGIGSTAEPVSQSTTSDYQWDVSRNQPYIDDEWSGLNGLSSADPNSRWNAPAEEWGNWVDEERASLLKSQEPIPDDQKVSDDDKEKGEGALPTGKSKKKKKKKKKQGEDNSTAQDTEELEKEIREDLPVNTSKTRPKQEKAFSLKTISTSDPAEVLVKNSQPIKTLPPATSTEPSVILSKSDSDKSSSQVPPILQETDKSKSNTKQNSVPPSQTKSETSWESPKQIKKKKKARRET", "notes": "Full-length, Myc-tagged; also called SPM12"}, "B2": {"name": "Myc-MTDH W404D, full-length human (other)", "chain": "B1 chain with R393D, W404D", "notes": "Full-length, Myc-tagged; also called SPM31"}, "B3": {"name": "Myc-MTDH E407R, full-length human (other)", "chain": "B1 chain with R393D, E407R", "notes": "Full-length, Myc-tagged; also called SPM33"}, "B4": {"name": "Myc-MTDH D406R, full-length human (other)", "chain": "B1 chain with R393D, D406R", "notes": "Full-length, Myc-tagged; also called SPM32"}, "B5": {"name": "SND1 (16-339) Δ39-43 (deletion in the SN1 Lβ2-β3 loop) (other)", "chain": "VPTVQRGIIKMVLSGCAIIVRGQPPERQINLSNIRAGNLARRAAATQPDAKDTPDEPWAFPAREFLRKKLIGKEVCFTIENKTPQGREYGMIYLGKDTNGENIAESLVAEGLATRREGMRANNPEQNRLSECEEQAKAAKKGMWSEGNGSHTIRDLKYTIENPRHFVDSHHQKPVNAIIEHVRDGSVVRALLLPDYYLVTVMLSGIKCPTFRREADGSETPEPFAAEAKFFTESRLLQRDVQIILESCHNQNILGTILHPNGNITELLLKEGFARCVDWSIAVYTRGAEKLRAAERFAKERRLRIWRDYVAPTANLDQK", "notes": "also called 439-43; not shown: N-terminal His tag (His6, His8 or His) with TEV site, pQlink vector"}, "B6": {"name": "His-SND1(16-339) P43G/R324E (protein)", "single chain": "VPTVQRGIIKMVLSGCAIIVRGQPRGGGPPERQINLSNIRAGNLARRAAATQPDAKDTPDEPWAFPAREFLRKKLIGKEVCFTIENKTPQGREYGMIYLGKDTNGENIAESLVAEGLATRREGMRANNPEQNRLSECEEQAKAAKKGMWSEGNGSHTIRDLKYTIENPRHFVDSHHQKPVNAIIEHVRDGSVVRALLLPDYYLVTVMLSGIKCPTFRREADGSETPEPFAAEAKFFTESRLLQRDVQIILESCHNQNILGTILHPNGNITELLLKEGFARCVDWSIAVYTRGAEKLRAAERFAKERRLEIWRDYVAPTANLDQK"}, "B7": {"name": "His-SND1 (16-339), SN1/2 domains, wild type (other)", "chain": "B6 single chain with G28P, E309R", "notes": "also called His6-SND1 harboring the SN1/2 domains; not shown: N-terminal His tag (His6, His8 or His) with TEV site, pQlink vector"}, "B8": {"name": "SND1 (16-339) R324E (other)", "chain": "B6 single chain with G28P", "notes": "not shown: N-terminal His tag (His6, His8 or His) with TEV site, pQlink vector"}, "B9": {"name": "SND1 (16-339) R255E (other)", "chain": "B6 single chain with G28P, R240E, E309R", "notes": "as for B8"}, "B10": {"name": "SND1 (16-339) F250A (other)", "chain": "B6 single chain with G28P, F235A, E309R", "notes": "as for B8"}, "B11": {"name": "SND1 (16-339) R316E (negative control mutation outside the interface) (other)", "chain": "B6 single chain with G28P, R301E, E309R", "notes": "as for B8"}, "B12": {"name": "His-SND1(16-339) P43G (other)", "single chain": "B6 single chain with E309R", "notes": "mutant named only on the sheet"}, "B13": {"name": "SND1 (16-339) R324A (other)", "chain": "B6 single chain with G28P, E309A", "notes": "as for B8"}, "B14": {"name": "GST-MTDH (386-407), wild type (other)", "chain": "SSADPNSDWNAPAEEWGNWVDE", "modifications": "not fully specified (N-terminus)", "notes": "not shown: N-terminal GST tag with TEV site, pQlink vector"}, "B15": {"name": "GST-MTDH (364-582), wild type (other)", "chain": "YQWDVSRNQPYIDDEWSGLNGLSSADPNSDWNAPAEEWGNWVDEERASLLKSQEPIPDDQKVSDDDKEKGEGALPTGKSKKKKKKKKKQGEDNSTAQDTEELEKEIREDLPVNTSKTRPKQEKAFSLKTISTSDPAEVLVKNSQPIKTLPPATSTEPSVILSKSDSDKSSSQVPPILQETDKSKSNTKQNSVPPSQTKSETSWESPKQIKKKKKARRET", "notes": "as for B14"}, "B16": {"name": "GST-MTDH (364-582) W401D (other)", "chain": "B15 chain with W38D", "notes": "as for B14"}, "B17": {"name": "GST-MTDH (364-582) N403A (other)", "chain": "B15 chain with N40A", "notes": "as for B14"}, "B18": {"name": "GST-MTDH (364-582) E400R (other)", "chain": "B15 chain with E37R", "notes": "as for B14"}, "B19": {"name": "GST-MTDH (364-582) E400A (other)", "chain": "B15 chain with E37A", "notes": "as for B14"}, "B20": {"name": "GST-MTDH (364-582) D389R (other)", "chain": "B15 chain with D26R", "notes": "as for B14"}, "B21": {"name": "GST-MTDH (364-582) N395A (other)", "chain": "B15 chain with N32A", "notes": "as for B14"}},
  "note": "Numbering of substitutions follows the chain as printed. Numbers in names are those of the source. Where no end group is shown, it is not given here.",
  "data": [
    {"molecular_target": "T1, HA-SND1, full-length human, wild type (human, UniProt Q7KZF4 1-910)", "T1 construct": "Full-length, HA-tagged; Expressed in HEK293T cells, tested in lysate; also called HA-tagged SND1; WT HA-SND1", "T1 sequence": "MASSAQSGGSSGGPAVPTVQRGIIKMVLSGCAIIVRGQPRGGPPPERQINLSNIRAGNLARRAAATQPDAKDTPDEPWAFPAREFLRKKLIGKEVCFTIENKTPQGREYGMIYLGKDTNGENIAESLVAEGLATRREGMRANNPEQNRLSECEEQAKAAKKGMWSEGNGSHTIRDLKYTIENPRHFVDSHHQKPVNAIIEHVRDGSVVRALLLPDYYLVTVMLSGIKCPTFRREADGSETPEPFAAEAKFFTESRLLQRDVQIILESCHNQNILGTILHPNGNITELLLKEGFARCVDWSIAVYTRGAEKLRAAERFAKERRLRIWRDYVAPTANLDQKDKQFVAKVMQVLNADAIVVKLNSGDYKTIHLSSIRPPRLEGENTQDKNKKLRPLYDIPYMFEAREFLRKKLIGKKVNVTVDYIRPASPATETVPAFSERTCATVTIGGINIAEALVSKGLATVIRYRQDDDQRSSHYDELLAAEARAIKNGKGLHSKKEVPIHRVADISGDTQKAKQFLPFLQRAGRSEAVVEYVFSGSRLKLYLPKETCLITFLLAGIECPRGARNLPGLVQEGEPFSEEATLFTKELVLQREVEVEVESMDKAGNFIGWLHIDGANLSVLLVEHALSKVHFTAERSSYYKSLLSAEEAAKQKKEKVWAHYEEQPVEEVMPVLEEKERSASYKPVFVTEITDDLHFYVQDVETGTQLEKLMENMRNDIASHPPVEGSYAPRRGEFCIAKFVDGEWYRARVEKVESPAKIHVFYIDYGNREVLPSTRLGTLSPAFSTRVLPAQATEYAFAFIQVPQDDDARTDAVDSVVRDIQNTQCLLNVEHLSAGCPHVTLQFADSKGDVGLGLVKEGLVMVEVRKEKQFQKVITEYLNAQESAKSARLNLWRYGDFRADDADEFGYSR", "assay": "co-IP (anti-Myc) from HEK293T lysates, western blot", "values": [
      {"binder": "B1", "binding result": "binds"},
      {"binder": "B2", "binding result": "binds"},
      {"binder": "B3", "binding result": "binds"},
      {"binder": "B4", "binding result": "binds"}
    ]},
    {"molecular_target": "B15", "assay": "pull-down by GST-MTDH (364-582) on glutathione resin, SDS-PAGE, Coomassie blue; normalised percentage of binding, mean±SEM of three experiments", "from_the_text": "(§1) The proteins bound to GS4B were examined on SDS-PAGE and visualized by Coomassie blue staining. […] The bound proteins were examined as in (FIG. 22A). For both (FIG. 22A) and (FIG. 22B), experiments were repeated three times; representative results are shown. The normalized percentage of binding was averaged from three experiments; mean±SEM was shown below the data. (FIG. 22C) HEK293T cells were transfected with human HA-SND1, WT Myc-MTDH or Myc-MTDH with indicated single point mutation. Lysates were immunoprecipitated with anti-Myc antibody and immunoblotted with the indicated antibodies. (FIG. 22D) HEK293T cells were transfected with human Myc-MTDH, WT HA-SND1 or mutant HA-SND1 with indicated single point mutations or deletions. Lysates were immunoprecipitated with anti-Myc and immunoblotted with the indicated antibodies.\n(§2) GST-Mediated Pull-Down Assay: ˜20 μg of GST-MTDH (different truncation forms and site mutants) was bound to 10 μl of glutathione resin via GST tag. The resin was washed with 200 μl assay buffer (25 mM Tris, PH8.0, 150 mM NaCl, 3 mM DTT) three times to remove the excess unbound protein. […] The mixture was washed with 200 μl assay buffer twice before examined by SDS-PAGE, and visualized by Coomassie blue staining. The experiments were repeated 3 times and the ratio of SND1 associated with GST-MTDH was analyzed by ImageJ.", "units": {"% Maximum binding": "%"}, "values": [
      {"binder": "B5", "% Maximum binding": 2},
      {"binder": "B6", "% Maximum binding": 9},
      {"binder": "B7", "% Maximum binding": 100},
      {"binder": "B8", "% Maximum binding": 26},
      {"binder": "B9", "% Maximum binding": 2},
      {"binder": "B10", "% Maximum binding": 9},
      {"binder": "B11", "% Maximum binding": 88},
      {"binder": "B12", "% Maximum binding": 67},
      {"binder": "B13", "% Maximum binding": 70}
    ]},
    {"molecular_target": "B7", "assay": "GST titration pull-down: GST-MTDH (386-407) on glutathione resin, SND1 (SN1/2) at 10, 3, 1, 0.5, 0.25, 0.12 (the sheet prints mM, paragraph 254 says µM), SDS-PAGE, Coomassie blue", "units": {"Estimated Binding Affinity": "µM"}, "values": [
      {"binder": "B14", "Estimated Binding Affinity": "~1.2"},
      {"binder": "SSADPNSDWKAPAEEWGNWVDE (other, member of the group m64)", "note": "[N395K]", "Estimated Binding Affinity": "~0.8"},
      {"binder": "SSADPNSDWNAPAEDWGLWVDE (other, member of the group m64)", "note": "[E400D/N403L]", "Estimated Binding Affinity": "~0.9"},
      {"binder": "SSADPNSDWNDPAEEWGNWVDE (other, member of the group m64)", "note": "[A396D]", "Estimated Binding Affinity": "~1.5"}
    ]},
    {"molecular_target": "B7", "assay": "GST pull-down on glutathione resin, SDS-PAGE, Coomassie blue; normalised percentage of binding, mean±SEM of three experiments", "from_the_text": "as §1, §2\nIdentification of MTDH and SND1 mutants deficient in binding: To gain insight into how the interface characterized above contributes to MTDH-SND1 interaction, structure-guided mutagenesis studies were performed.", "units": {"% Maximum binding": "%"}, "values": [
      {"binder": "B15", "% Maximum binding": 100},
      {"binder": "B16", "% Maximum binding": 46},
      {"binder": "B17", "% Maximum binding": 68},
      {"binder": "B18", "% Maximum binding": 70},
      {"binder": "B19", "% Maximum binding": 80},
      {"binder": "B20", "% Maximum binding": 60},
      {"binder": "B21", "% Maximum binding": 84}
    ]}
  ]
}
